Test results as given in patent US20120316071A1 (published 2012).

What was measured:
[1] = biological target: T1, rHuman CD44/Fc Chimera, CF (R&D Systems Cat#3660-CD) (human, UniProt P16070 21-220); experiment: Multispot ECL (MSD), antigen spotted on plate, Fab 3.75 nM; blank spot 191
T1 construct: Bought recombinant protein; Fc part of the bought chimera not given

[2] = biological target: T2, rHuman IGF-1 sR, (IGF-1 sR), CF (R&D Systems Cat#391-GR) (human, UniProt P08069 31-932); experiment: as above
T2 construct: Bought soluble receptor; also called insulin-like growth factor-1 soluble receptor

[3] = biological target: T3, Recombinant Human DLL4 (R&D Systems Cat#1506-D4/CF) (human, UniProt Q9NR61 27-524); experiment: as above
T3 construct: it includes the signal peptide (amino acids 1-25), the transmembrane region and the cytoplasmic domain; also called delta-like protein 4; rHuman DLL4

[4] = biological target: T4, rHuman ErbB2/Fc Chimera, CF (R&D Systems Cat#1129-ER) (human, UniProt P04626 23-652); experiment: as above
T4 construct: Bought recombinant protein; also called human epidermal growth factor 2 receptor; Fc part of the bought chimera not given

[5] = biological target: T1, rHuman CD44/Fc Chimera, CF (R&D Systems …); experiment: Multispot ECL (MSD), antigen spotted on plate, Fab 15 nM; blank spot 536
[6] = biological target: T2, rHuman IGF-1 sR, (IGF-1 sR), CF (R&D …); experiment: as above
[7] = biological target: T3, Recombinant Human DLL4 (R&D Systems …); experiment: as above
[8] = biological target: T4, rHuman ErbB2/Fc Chimera, CF (R&D …); experiment: as above
[9] = biological target: T1, rHuman CD44/Fc Chimera, CF (R&D Systems …); experiment: Multispot ECL (MSD), antigen spotted on plate, Fab 60 nM; blank spot 1433
[10] = biological target: T2, rHuman IGF-1 sR, (IGF-1 sR), CF (R&D …); experiment: as above
[11] = biological target: T3, Recombinant Human DLL4 (R&D Systems …); experiment: as above
[12] = biological target: T4, rHuman ErbB2/Fc Chimera, CF (R&D …); experiment: as above
[13] = biological target: T1, rHuman CD44/Fc Chimera, CF (R&D Systems …); experiment: Multispot ECL (MSD), antigen spotted on plate, Fab 0.9375 nM; blank spot 153
[14] = biological target: T2, rHuman IGF-1 sR, (IGF-1 sR), CF (R&D …); experiment: as above
[15] = biological target: T3, Recombinant Human DLL4 (R&D Systems …); experiment: as above
[16] = biological target: T4, rHuman ErbB2/Fc Chimera, CF (R&D …); experiment: as above
[17] = biological target: T5, rHuman IGF-1 sR, (IGF-1 sR), CF (R&D Systems Cat#391-GR) (human, UniProt P08069 31-932); experiment: MSD Multispot ECL, antigen spotted on plate, Fab 920 nM; blank spot 4082
T5 construct: Bought soluble receptor; also called insulin-like growth factor-1 soluble receptor

[18] = biological target: T6, rHuman Erythropoietin R/Fc Chimera, CF (R&D Systems Cat#963-ER) (human, UniProt P19235 25-250); experiment: as above
T6 construct: Bought reagent; also called EPO R/Fc; EPO R; Fc part of the bought chimera not given
T6 sequence (looked up): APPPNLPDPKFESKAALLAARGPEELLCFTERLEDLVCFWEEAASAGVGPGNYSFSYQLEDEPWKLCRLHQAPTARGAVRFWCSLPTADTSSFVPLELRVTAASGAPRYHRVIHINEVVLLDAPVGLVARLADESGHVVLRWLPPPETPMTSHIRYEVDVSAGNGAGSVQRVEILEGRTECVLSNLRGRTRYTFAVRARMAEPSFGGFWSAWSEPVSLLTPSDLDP

[19] = biological target: T7, Recombinant Human DLL4 (R&D Systems Cat#1506-D4/CF) (human, UniProt Q9NR61 27-529); experiment: as above
T7 construct: Bought recombinant protein; also called rHuman DLL4; delta-like protein 4

[20] = biological target: T8, rHuman Notch-1/Fc Chimera, CF (R&D Systems Cat#3647-TK) (human, UniProt P46531 19-526); experiment: as above
T8 construct: Bought reagent; Fc part of the bought chimera not given

[21] = biological target: T5, rHuman IGF-1 sR, (IGF-1 sR), CF (R&D …); experiment: MSD Multispot ECL, antigen spotted on plate, Fab 57.5 nM; blank spot 954
[22] = biological target: T6, rHuman Erythropoietin R/Fc Chimera, CF …; experiment: as above
[23] = biological target: T7, Recombinant Human DLL4 (R&D Systems …); experiment: as above
[24] = biological target: T8, rHuman Notch-1/Fc Chimera, CF (R&D …); experiment: as above
[25] = biological target: T5, rHuman IGF-1 sR, (IGF-1 sR), CF (R&D …); experiment: MSD Multispot ECL, antigen spotted on plate, Fab 230 nM; blank spot 1656
[26] = biological target: T6, rHuman Erythropoietin R/Fc Chimera, CF …; experiment: as above
[27] = biological target: T7, Recombinant Human DLL4 (R&D Systems …); experiment: as above
[28] = biological target: T8, rHuman Notch-1/Fc Chimera, CF (R&D …); experiment: as above
[29] = biological target: T5, rHuman IGF-1 sR, (IGF-1 sR), CF (R&D …); experiment: MSD Multispot ECL, antigen spotted on plate, Fab 14.375 nM; blank spot 738
[30] = biological target: T6, rHuman Erythropoietin R/Fc Chimera, CF …; experiment: as above
[31] = biological target: T7, Recombinant Human DLL4 (R&D Systems …); experiment: as above
[32] = biological target: T8, rHuman Notch-1/Fc Chimera, CF (R&D …); experiment: as above

B1: Fab VH1-3_IGHD4-23*01_IGHJ4*01 & L12_IGKJ1*01 (Fab, V domains shown)
VH: QVQLVQSGAEVKKPGASVKVSCKASGYTFTSYAMHWVRQAPGQRLEWMGWSNAGNGNTKYSQEFQGRVTITRDTSASTAYMELSSLRSEDMAVYYCARDDYGGNSDYFDYWGQGTLVTVSS
VL: not shown
ECL signal [1]: 307
ECL signal [2]: 314
ECL signal [3]: 1570
ECL signal [4]: 291
ECL signal [5]: 748
ECL signal [6]: 859
ECL signal [7]: 7730
ECL signal [8]: 740
ECL signal [9]: 2360
ECL signal [10]: 2670
ECL signal [11]: 17300
ECL signal [12]: 2160
ECL signal [13]: 251
ECL signal [14]: 204
ECL signal [15]: 453
ECL signal [16]: 268

B2: Fab VH1-46_IGHD3-10*01_IGHJ4*01 & L12_IGKJ1*01 (Fab, V domains shown)
VH: QVQLVQSGAEVKKPGASVKVSCKASGYTFTSYYMHWVRQAPGQGLEWMGIINPSGGSTSYAQKFQGRVTMTRDTSTSTVYMELSSLRSEDTAVYYCAREYYYGSGSYYNDYFDYWGQGTLVTVSS
VL: not shown
notes: Tested as a Fab made in E. coli; VH was cloned into Plasmid A (CH1 with His6 and Flag tags) and the kappa VL into Plasmid C (kappa CL)
ECL signal [17]: 10200
ECL signal [18]: 16400
ECL signal [19]: 73600
ECL signal [20]: 20100
ECL signal [21]: 2830
ECL signal [22]: 4040
ECL signal [23]: 144000
ECL signal [24]: 5890
ECL signal [25]: 4760
ECL signal [26]: 6950
ECL signal [27]: 119000
ECL signal [28]: 9740
ECL signal [29]: 1750
ECL signal [30]: 2720
ECL signal [31]: 125000
ECL signal [32]: 4210
